Measurements: the nanobody polyreactivity screen of Harvey et al. (2022)

Test: yeast display, Sf9 membrane polyspecificity reagent, FACS + sequencing; frameworks hold sequencing errors
Summary of the method: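 Using colony PCR, genes from sorted yeast display clones were amplified, then sequenced on MiSeq at 2 × 250 and filtered by CDR length. The clones had been stained with 10% biotinylated, detergent-solubilized Sf9 membrane reagent for 1 hour at 4 °C and sorted by FACS into low and high (top ~1%) gates on anti-HA and streptavidin fluorescence. Polyreactivity labels come from the gate of origin.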
With “QVQLEESVGGLVQAGGSLRLSCAASGSTFVYYGMGWYRQAPGKERELVAAITDIGDSTNYADSVKGRFTISRDNAKNTVYLQMNSLKPDDTAVYYCAASGRSVPYYGSPRNDYWGQGTQVTVSS” the “polyreactivity (PSR sort gate)” value was “low polyreactivity”.
In the case of “QVQLVESGGGLVQAGGSLRLSCAASGFTFAVSAMGWYRQAPGKERELVAAISRSGTRTYYADSVKGRFTISRDNAKNTVYLQMNSLKPEDTAVYYCAADKYRHGYDYWGQGTQVTVSS”, the “polyreactivity (PSR sort gate)” value is reported as “low polyreactivity”.
For “QVQLVESGGGLVQAGGSLRLSCAASGFTLARNAMVWYRQAPGKERELVAANSWSGGTTYYADSVKGSFTISRDNAKNTVYLQMNSLKPEDTAVYYCNTASWRAQYYYWGQGNQVTVSS”, the “polyreactivity (PSR sort gate)” value was “high polyreactivity”.
For “QVQLVESGGGLVQARGSLRLSCAASGSTFIRYAMGWYRQAPGKERELVAAITWRGGSTYYADSVKGRFTISRDNAKNTVYLQMNSLKPEDTAVYYCAARDRDTRNYYWGQGTQGTVSS”, the “polyreactivity (PSR sort gate)” value was “high polyreactivity”.
For “QVQLVESGGGLVQAGGSLRLSCAASGRIFIYNAMGWYRQAPGKEREFVAAISRTGGNTYYADSVKGRFTISRDNAKNTVYLQMNSLKPEDTAVYYCATKRKWTYLSYDYWGQGTQVTVSS”, the “polyreactivity (PSR sort gate)” value was “low polyreactivity”.
For “QVQLVESGGGLVQAGGSLRLSCAASGFTFSYYAMGWYRQAPGKERELVAAITSGGSTYYADYVKGRFTISRDNAKNTVYLQMNRLKPEDTAVYYCNADGWYYPTDDYWGQGTQVTVSS”, the “polyreactivity (PSR sort gate)” value was “low polyreactivity”.
For “QVQLVESGGGLVQAGGSLRLSCAASGYTFQRYAMGRYRQAPGKERELVATISKRGGSTYYADSVKGRFTISRDNAKNTVYLQMNSLKPDDTAVYYCATATPEYRGYWPWQYAGGDYWGQGTQVTVSS”, the “polyreactivity (PSR sort gate)” value was “high polyreactivity”.
In the case of “QVQLVESGAGLVQAGGRLRLSCAASGRIFDGYAMGWYRQAPGKERELVAAITASGGSTYYADSVKGRFTISRDNAKITVYLQMNSLKPEDTAVYYCAVDYSYWVEYWGQGTQVTVSS”, the “polyreactivity (PSR sort gate)” value is reported as “high polyreactivity”.
In the case of “QVQLVESGGGLVQAGGSLRLSCAASGSTFGYNAMGGYRQAPGKERELVAAITWTGASTYYADSVKGRFTISRDNAKNTVYLQMNSLKPEDTAVYYCNLVGYQSMNYWGQGTQVTVSS”, the “polyreactivity (PSR sort gate)” value is reported as “low polyreactivity”.
With “QVQLVESGGGLVQAGGSLRLSCAASGTFFGYAMGWYRQAPGKERELVAAITSGGSTYYADSVKGRFTISRDNAKNTVYLQMNSLKPEDTAVYYCARVYSRWSYRYDYWGQGTQVTVSS” the “polyreactivity (PSR sort gate)” value was “low polyreactivity”.
For “QVQLVESGGGLVQAGGSLRLSCPASGRTFYTNAMGWYRHAPGKERELVAAITRGGSTYYADSVKGRFTISRDNAKNTVYLQMYSLKPEDTAVYYCAAAYASSWRQRVTSEKGYYWGQGTQVTVSS”, the “polyreactivity (PSR sort gate)” value was “high polyreactivity”.
For “QVQRVESGGGLVQAGGSLRLSCAASGITFWPYAMGWYRQAPGKERELVAAIRASVGRTYYADSVKGRFTISRDNAKNTVYLQMNSLKPEDTAVYYCNAYGRYGKFRVEYDYWGQGTQVTVSS”, the “polyreactivity (PSR sort gate)” value was “low polyreactivity”.
With “QVQLVESGGGLVQAGGSLRLSCAASGSTFYRYAMGWYRQAPGKERELVAAISSDGTTYYADSVKGRFTISRDNAKNTVYLQMISLKPEDTAVYDCAAEGIRRSQRFNYWGQGTQVTVSS” the “polyreactivity (PSR sort gate)” value was “high polyreactivity”.
For “QVQLVESGGGLVQAGGSLRLSCAASGSIFYFYAMGWYRQAPGKERELVAAISSRGTSTYYADSVKGRFTISRDNAKNTVYLQMNSLKPEDTAVYYCAAQIYVYYQRRPPYDYWGQGTQVTVSS”, the “polyreactivity (PSR sort gate)” value was “high polyreactivity”.
In the case of “QVQLVESGGGLVQAGGSLRLSCAASGIIFRTYAMGWYRQAPGKERELVAAINSDGSTYYADSVKGRFTISRDNAKNTVYLQMNSLKPEDTAVYYCAAVVWRIHAYYWAVDGWYYYWGQGTQVTVSS”, the “polyreactivity (PSR sort gate)” value is reported as “high polyreactivity”.
In the case of “QVQLVESGGGLVQAGGSLRLSCAASGSIFSGNTMGWYRQAPGKERELVAAISGGGSTNYADSVKGRFTISRDNAKNTVYLQMNSLKPEDTAVYYCAAEPDHVADSHSGYDYWGQGTQVTVSS”, the “polyreactivity (PSR sort gate)” value is reported as “low polyreactivity”.
For “QVQLVESGGGLVQAGGSLRLSCAASGFTLFYNAMGWYRQAPGKERELVAAITARGGGTYYADSVKGRFTISRDNAKNPVYLQMNSLKPEDTAVYYCAADSFIPPYDHWGQGTQVTVSS”, the “polyreactivity (PSR sort gate)” value was “low polyreactivity”.
With “QVQLVESGGGLVQAGGSLRLSCAASGSIFPSNAMGWYRQAPGKERELVAAISSSGGRTYYADSVKGRFTISRDNAKNTVYLQMNSLKPEDTAVYYCNRVYFKSRQGQMYYWGQGTQVTVSS” the “polyreactivity (PSR sort gate)” value was “high polyreactivity”.
In the case of “QVQLVESGGGLVQAGGSLRLSCAASGRIFWFYTMGWYRQAPGKERELVAAISTSGGSTYYADSVKGRFTISRDNAKNTVYLQMNSLKPEDTAVYYCAAQNGYYPQHDYWGQGTQVTVSS”, the “polyreactivity (PSR sort gate)” value is reported as “high polyreactivity”.
For “QVQLVESGGGLVQAGGSLRVSCGASGRTFLFYAMGWYRQAPGKERELVASITGRGGRTSYADSEKGRFTISRDNAKNTVYLQKNSLKPEDTAVYYCAARNPYTSTYYDWGQGTQETVSS”, the “polyreactivity (PSR sort gate)” value was “high polyreactivity”.
With “QVQLVESGGGLVQAGGSLRLSCAASGFIFWDNAMGWYRQAPGKERELVAAISRNGGRTYYADSVKGRFTISRDNAKNTVYLQMNSLKPEDTAVYYCAAYTARSYGMDYWGQGTQVTVSS” the “polyreactivity (PSR sort gate)” value was “high polyreactivity”.
For “QVQLVESGGGLVQAGGSLRLSCAASGFTFTQYVKGWYRQAPGKERELVAAITRGGGSTYYADSVKGRFTISRDNAKNTVYLQMNRLKPEDTAFYYCATRRVEYIRGWVEYDYWGQGTQVTVSS”, the “polyreactivity (PSR sort gate)” value was “low polyreactivity”.
For “QVQLVESGGGLVQAGGSLRLSCAASGRNFTRNAMGWYRQAPGKEREFVAAISWSGGSTYYADSVKGRFTLSRDNAKNTVYVQMNSLKPEDTAVYYCAAKNCGGYVSWYDYWGQGTQVTVSS”, the “polyreactivity (PSR sort gate)” value was “low polyreactivity”.
In the case of “QVQLVESGGCLVQAGGSLRLSCAASGYIFYGYAMGWYRQAPGKERELVAAITVRGGSTYYADSVKGRFRISRDNAKNTVYLQMNSLKPQDTAVYYCAAAPQFTFGVGYWGQGTQVTVSS”, the “polyreactivity (PSR sort gate)” value is reported as “low polyreactivity”.
In the case of “QVQLVESGGGLVQAGGSLRLSCAASGRIFSGYAMGWYRQAPGKERELVAAISQRGGSTTYADSVKGRFTISRDNAKNTVYLQMNSLKPEDTAVYYCAKRYTYPSGYDYWGQGTQVTVSS”, the “polyreactivity (PSR sort gate)” value is reported as “low polyreactivity”.
For “QDQLVESGGGLVQAGGSLRLICAASGLIFGFYAMGWYRQAPGKERELVAAINTGGITYYADSVKGRFTISRDNAKYTVYLQMNSLKPEDTAVYYCNKDSHISTAYDYWGQGTQVTVSS”, the “polyreactivity (PSR sort gate)” value was “low polyreactivity”.
With “QVQLVESGGGLVQAGGSLRLRSPASGSTLYRYAMGWYRQAPGKERELVAAIYSSGGTTFYADSVKGRFTISRDNAKKTVYLQMKSLKPEDTAVYYCNRTARKLRTVHSSVVGLDYWGQGTQVTVSS” the “polyreactivity (PSR sort gate)” value was “low polyreactivity”.
For “QDQLVESGGGLVQEGGSLRLSCAASGLIFTYYAMGWYRQAPGKERELVAAINYSGGSTYYADSVKGRFTISRDNAKNTVYLQMNSLKPEDTAVYYCDARRVTQTEGPMGYWGQGTQVTVSS”, the “polyreactivity (PSR sort gate)” value was “low polyreactivity”.
With “QVHLVESGGGLVQAGGSLRLSCAASGRIFYGYAMGWYRQAPWKEREFVAAITWRGGTFYADSVKGRFTISRDNAKNTVYLQMNSLKPEDTAVYYCAARVSSYGRYDYWGQGTQVTVSS” the “polyreactivity (PSR sort gate)” value was “high polyreactivity”.
For “QVQLVESGGGLVQAGGILRLICAASGSTFSTYAMGWYRPAPGKERELVAAIRFSGGTTYYADSVKGRFTISRDNAKNSVYLQMYCLKPEDTAVYYCAAVYISRNFFGRARGDYWGQGTEVTVSS”, the “polyreactivity (PSR sort gate)” value was “low polyreactivity”.
In the case of “QVQLVESGGGLVQAGGSLRLTCAASGSTLKSYAMGWYRQAPGKERELVAAITRSGARTYYADSVQGRFTISRDNAKNTVYFQMNSLKPEDTAVYYCNRVGYQYGSDQEDDYWGQGTQVTVSS”, the “polyreactivity (PSR sort gate)” value is reported as “high polyreactivity”.
In the case of “QVQLVESGVGLVQAGGSLRLSSAASGSIFHSYAMGWYRQAPGKERELVASITASGDSTYYADSVKGRFTISRDNAKNTVYLPMNSLKPEDTAVFYCNTQAVYGGGEGGYDYWGQGTQVTVSS”, the “polyreactivity (PSR sort gate)” value is reported as “low polyreactivity”.
For “QVQLVESGGGLVQAGASLRLSCAASGRIFPTYAMGWYRQAPGKEMEFVAAISRSGGRTYYADSVKGRFTISRDHAKNTVYLQMNSLKPEDTAVYYCNAEGDPYVDFPSRSTGYDYWGQGTQVTVSS”, the “polyreactivity (PSR sort gate)” value was “high polyreactivity”.
For “QDQLVESVVCLVQAGLSLRLSGASSVRIFRYYAMGWYRQAHGKERELVAAINSDGRTYYADSVKGRFTISRDNANNTVYLQMNSLKPEDTAVYYCAADHHSYRYGGYYYWGQGTQVTVAS”, the “polyreactivity (PSR sort gate)” value was “low polyreactivity”.
In the case of “QVQLVESGGGLVQAGGSLRLSCAASGRIFLRNAMGWYRQAPGNERELVATITSRGGSTYYADSVKGRFTISRDNAKNTVYLQMNSLKPEDTAVYYSAADPSRYRSFGYVYGGYYYWGQGTQVTVSS”, the “polyreactivity (PSR sort gate)” value is reported as “low polyreactivity”.
For “QVQLVESGGGLVQAGGSLRLSCAASGFTFWTYAMGWYRQAPGKERELVAAIDSGGSTYYADSVKGRFTISRDNAKNTVYLQMHSLKPEDTAVYYCNAGPSVTSGYDYDYWGQGTQVTVSS”, the “polyreactivity (PSR sort gate)” value was “low polyreactivity”.
For “QVQLVETGGGLVQAGGSLRLSCAASGSIFVYNAMGWYRQAPGKERELVAGITFIGGSTYYADSVKGRFTISRDNAKNTVFLQMNSLKPEDTAVYYCNADVAPGIFYGYDSWGQGTQVTVSS”, the “polyreactivity (PSR sort gate)” value was “low polyreactivity”.
In the case of “QVQLVESGGGLVQAGGSLRLSCAASGFTFDVYALGWYRQAPGKERELVAAISARGGSTCYADSVKGRFTISRDNAKNTVYLQMHSLKPEDTAVYYCNTYPKKKRPNEYDYWGQGTQVTVSS”, the “polyreactivity (PSR sort gate)” value is reported as “high polyreactivity”.
For “QVQLVESGGGLVQAGGSLRLSCAPSGRTFSVHAMGWYRPARGKGRELVAAISWDGGSTYYADSVKGRFTISRDNANNTVYLQMNSLKPEETAVYYCNKDLYYAYDYWGQGTQVTVSS”, the “polyreactivity (PSR sort gate)” value was “low polyreactivity”.
With “QFQLVESVGGLVQAGGSLRLSCAASGRTGVNAMGWYRQAPRKERELVAAINNGDSTYYADSVKGRFTISRDNAKNTVYLQMNSLKPEDTAVYYCAARSALYPKYESWGQGTQVTVSS” the “polyreactivity (PSR sort gate)” value was “low polyreactivity”.
In the case of “QFQLVESGGGLVQAGGSLRLSCAASGSIFGGYAMGWYRQAPGKEREFVAAITRSGVSTYYADSVKGRFTISRDNEKNTVYLQMNSLKPEDTAVYYCAADQTAWRLRVYLRQYRYEYWGQGTQVTVSS”, the “polyreactivity (PSR sort gate)” value is reported as “high polyreactivity”.
For “QVQLVESGGGLVQAGGSLRLSCAASGSTFSANAMGWYRQAPGKERELLAAISSGDITYYADSVKGRFTISRDNAKNTVYLQMNSLKPEDTAVYYCAKYTRPTGNVDDGFEYWGQGTQVTVSS”, the “polyreactivity (PSR sort gate)” value was “low polyreactivity”.
For “QVQLVESGGGLVQAGGSLRLSCAASGGTFGYYAMGWYRQAPGKERELVAAITSGGSTNYADSVKGRFTISRDNAKNTVYLQMNSLKPEDTAVYYCAARYINRYPKAQPTDRSIYYWGQGTQVTVSS”, the “polyreactivity (PSR sort gate)” value was “high polyreactivity”.
